# Data as given in patent publication US20230165981A1, “[161Tb]-BASED RADIOPEPTIDES” (priority 2021, published 2023).
# Where “and” joins values, the source holds several entries; their conditions need not be identical. Identical values can stand only once. Like-named read-outs stand apart in the source and are kept apart here. Starred links: 1 amine or outer side, 2 acyl side, 3 side chain; linkers in the order of their positions; H or OH if unused. Positions of bridges follow the written chain, without caps; N, C: chain ends. Non-standard residues stand in square brackets, D forms with d. Residues, ends and D or L forms follow the SMILES beside them. *: point of attachment. DOTA = O=C(O)CN1CCN(CC(=O)O)CCN(CC(=O)*)CCN(CC(=O)O)CC1; X1 = NC(=O)Nc1ccc(CC(N[*:1])C(=O)[*:2])cc1; Phe(4-Cl) = N[CH](Cc1ccc(Cl)cc1)C(=O)O
# How the values were obtained:
# [1] = test system: metastatic functional neuroendocrine neoplasm of the pancreatic tail; test: First-in-man scintigraphy and SPECT/CT; type: in vivo, human; details: 0.5-113 hours p.i., patient
# Description: A patient with a metastatic functional neuroendocrine neoplasm of the pancreatic tail was injected with 161TbDOTATOC. Scintigraphy and SPECT were recorded. […] FIGS. 18A, 18B, 18C, and 18D show whole-body images obtained at 0.5 hours post-injection (p.i.) (FIG. 18A), 2.5 hours p.i. (FIG. 18B), 20 hours p.i. (FIG. 18C), and 113 hours p.i. (FIG. 18D) of 161Tb-DOTATOC. Early blood-pool activity was noticed in the heart (H) and blood vessels (BV).
# FIGS. 19A, 19B, and 19C show SPECT/CT images obtained at 19 hours after injection of 161Tb-DOTATOC. (FIG. 19A) Coronal section, (FIG. 19B) sagittal section, and (FIG. 19C) transverse section.
# [2] = Assessment of early side effects in therapy mice; details: endpoint of therapy
# Description: Early side effects were assessed based on the RBW of each mouse which was monitored every second day. When an endpoint was reached or at the end of the study (after 49 days), relevant organs and tissues were collected, weighed and put into relation to the brain mass and body weight of the respective mouse. This allowed comparison of organ-to-brain and organ-to-body mass weight ratios. In addition, blood plasma parameters from blood collected immediately after euthanasia were measured.
# RBW, organ mass and mass ratios at the endpoint: The RBW was monitored every second day. Mice were euthanized when a predefined endpoint criterion was reached or when the study was terminated at Day 49. RBWs, organ masses, organ mass ratios (kidney-to-brain, liver-to-brain and spleen-to-brain) and organ mass to body weight ratios (kidney-to-body mass, liver-to-body mass and spleen-to-body mass) were analyzed for significance using a one-way ANOVA test with a Tukey’s multiple comparisons post-test. A p-value of <0.05 was considered as statistically significant.
# Blood plasma chemistry: Immediately before euthanasia of the mice that reached the endpoint, blood was sampled from the retrobulbar vein. The values of creatinine (CRE), blood urea nitrogen (BUN), alkaline phosphatase (ALP), total bilirubin (TBIL) and albumin (ALB) were determined in the plasma after centrifugation of the blood using a dry chemistry analyzer (DRI-CHEM 4000i, FUJIFILM, Japan). The average blood plasma parameters of each group were analyzed for significance using a one-way ANOVA test with a Tukey’s multiple comparisons post-test. A p-value of <0.05 was considered as statistically significant.
# AR42J tumor-bearing mice [3] = details: 0.2 nmol/mouse
# Description: All applicable international, national, and/or institutional guidelines for the care and use of animals were followed. In particular, all animal experiments were carried out according to the guidelines of Swiss Regulations for Animal Welfare. The preclinical studies were ethically approved by the Cantonal Committee of Animal Experimentation and permitted by the responsible cantonal authorities (license N° 75721 and 79692). Five-week-old female, athymic nude mice (CD-1 Foxn-⅟nu) were obtained from Charles River Laboratories (Sulzfeld, Germany). Mice were subcutaneously inoculated with AR42J tumor cells (5 × 10^6 cells in 100 µL PBS) for SPECT/CT imaging, biodistribution and therapy studies. The SPECT/CT and biodistribution studies were performed 10-14 days after tumor cell inoculation when the tumor size reached a volume of ~250 mm^3.
# The mice were sacrificed at 0.5 h, 2 h, 4 h, 24 h and 48 h p.i, selected tissues and organs were collected, weighed, and the accumulated activity was counted using a γ-counter (Perkin Elmer). The decay-corrected data were listed as % IA/g. The data were analyzed for significance using a two-way ANOVA with Tukey’s multiple comparison post-tests. A p-value of <0.05 was considered statistically significant.
# [4] = n-octanol/PBS distribution coefficient (logD), shake-flask method; type: physicochemical; details: n-octanol/PBS pH 7.4
# Description: An aliquot of the radiolabeled peptide (0.5 MBq, 25 µL) was added to a mixture of 1475 µL PBS pH 7.4 and 1500 µL n-octanol. The respective tubes were vortexed for 60 sec and centrifuged for 6 min at 2500 rpm followed by the measurement of the activity concentration in a defined volume of each layer using a γ-counter (Perkin Elmer, Wallac Wizard 1480). The logD values were calculated as the logarithm of the ratio of counts per minute (cpm) measured in the n-octanol phase relative to the cpm measured in the PBS pH 7.4 phase. The experiments were performed three times with five replicates for each radiopeptide and the logD value was expressed as the average ± standard deviation (SD) of the values obtained in each experiment. […] A p value <0.05 was considered statistically significant.
# AR42J tumor-bearing mice [5] = test: Biodistribution: optimum injected molar amount; details: 2 h p.i.
# AR42J tumors = test: Preclinical therapy study in AR42J tumor-bearing mice; type: in vivo
# AR42J tumor-bearing mice [6] = details: 24 h p.i., 1 nmol/mouse
# Description: (§1) Five-week-old female, athymic nude mice (CD-1 Foxn-⅟nu) were obtained from Charles River Laboratories (Sulzfeld, Germany). Mice were subcutaneously inoculated with AR42J tumor cells (5 × 10^6 cells in 100 µL PBS) for SPECT/CT imaging, biodistribution and therapy studies. The SPECT/CT and biodistribution studies were performed 10-14 days after tumor cell inoculation when the tumor size reached a volume of ~250 mm^3.
# (§2) The mice were sacrificed at 2 h and 24 h post injection (p.i.). Selected tissues and organs were collected, weighed, and the accumulated activity was counted in a γ-counter. The decay-corrected data were listed as the percentage of the injected activity per gram of tissue mass (% IA/g). The data were analyzed for significance using a two-way ANOVA with Tukey’s multiple comparison post-tests. A p-value of <0.05 was considered statistically significant.
# in vivo = details: female, athymic nude (CD-1 Foxn-1nu), mouse, iv, 1 nmol/mouse, total radioactivity
# Description: as §1, §2
compound,measurement,setting,value
C[C@@H](O)[C@@H]1NC(=O)[C@H](CCCCN)NC(=O)[C@@H](Cc2c[nH]c3ccccc23)NC(=O)[C@H](Cc2ccc(O)cc2)NC(=O)[C@@H](NC(=O)[C@@H](Cc2ccccc2)NC(=O)CN2CCN(CC(=O)O)CCN(CC(=O)O)CCN(CC(=O)O)CC2)CSSC[C@@H](C(=O)N[C@H](CO)[C@@H](C)O)NC1=O [[^161Tb]Tb-DOTATOC] [metal not drawn],uptake in whole-body scintigraphy,[1],Pathological uptake was demonstrated in the bilobar liver
same,ALB (albumin),[2],23 ± 2 g/L
same,ALP (alkaline phosphatase),[2],76 ± 21 U/L
same,BUN (blood urea nitrogen),[2],5.8 ± 1.0 mmol/L
same,CRE (plasma creatinine),[2],<18 (n=6) µmol/L
same,TBIL (total bilirubin),[2],< 3 µmol/L and 4 ± 1 µmol/L
same,Biodistribution: AR42J Tumor,AR42J tumor-bearing mice [3]; 0.5 h p.i.,15 ± 2 % IA/g
same,Biodistribution: AR42J Tumor,AR42J tumor-bearing mice [3]; 2 h p.i.,14 ± 1 % IA/g
same,Biodistribution: Adrenals,AR42J tumor-bearing mice [3]; 2 h p.i.,0.43 ± 0.11 % IA/g
same,Biodistribution: Femur,AR42J tumor-bearing mice [3]; 2 h p.i.,0.12 ± 0.03 % IA/g
same,Biodistribution: Heart,AR42J tumor-bearing mice [3]; 2 h p.i.,≤0.10 % IA/g
same,Biodistribution: Intestines,AR42J tumor-bearing mice [3]; 2 h p.i.,0.24 ± 0.01 % IA/g
same,Biodistribution: Kidneys,AR42J tumor-bearing mice [3]; 2 h p.i.,9.4 ± 0.4 % IA/g
same,Biodistribution: Liver,AR42J tumor-bearing mice [3]; 2 h p.i.,0.19 ± 0.03 % IA/g
same,Biodistribution: Lung,AR42J tumor-bearing mice [3]; 2 h p.i.,0.47 ± 0.05 % IA/g
same,Biodistribution: Muscle,AR42J tumor-bearing mice [3]; 2 h p.i.,≤0.10 % IA/g
same,Biodistribution: Pancreas,AR42J tumor-bearing mice [3]; 2 h p.i.,1.5 ± 0.2 % IA/g
same,Biodistribution: Spleen,AR42J tumor-bearing mice [3]; 2 h p.i.,0.18 ± 0.02 % IA/g
same,LogD,[4],-3.3 ± 0.2
same,Tu-to-adr (tumor-to-adrenals),AR42J tumor-bearing mice [5]; 0.040 nmol/mouse,24 ± 1
same,Tu-to-blood,AR42J tumor-bearing mice [5]; 0.040 nmol/mouse,187 ± 12
same,Tu-to-kidney,AR42J tumor-bearing mice [5]; 0.040 nmol/mouse,1.8 ± 0.2
same,Tu-to-liver,AR42J tumor-bearing mice [5]; 0.040 nmol/mouse,73 ± 3 and 74 ± 3
same,Tu-to-adr (tumor-to-adrenals),AR42J tumor-bearing mice [5]; 0.20 nmol/mouse,34 ± 7
same,Tu-to-blood,AR42J tumor-bearing mice [5]; 0.20 nmol/mouse,221 ± 56
same,Tu-to-kidney,AR42J tumor-bearing mice [5]; 0.20 nmol/mouse,1.5 ± 0.1
same,Tu-to-liver,AR42J tumor-bearing mice [5]; 0.20 nmol/mouse,76 ± 14
same,Biodistribution: AR42J Tumor,AR42J tumor-bearing mice [5]; 1.0 nmol/mouse,8.2 ± 0.2 % IA/g
same,Biodistribution: Adrenals,AR42J tumor-bearing mice [5]; 1.0 nmol/mouse,0.25 ± 0.06 % IA/g
same,Biodistribution: Blood,AR42J tumor-bearing mice [5]; 1.0 nmol/mouse,≤0.10 % IA/g
same,Biodistribution: Femur,AR42J tumor-bearing mice [5]; 1.0 nmol/mouse,≤0.10 % IA/g
same,Biodistribution: Heart,AR42J tumor-bearing mice [5]; 1.0 nmol/mouse,≤0.10 % IA/g
same,Biodistribution: Intestines,AR42J tumor-bearing mice [5]; 1.0 nmol/mouse,0.21 ± 0.13 % IA/g
same,Biodistribution: Kidneys,AR42J tumor-bearing mice [5]; 1.0 nmol/mouse,9.9 ± 1.3 % IA/g
same,Biodistribution: Liver,AR42J tumor-bearing mice [5]; 1.0 nmol/mouse,0.17 ± 0.01 % IA/g
same,Biodistribution: Lung,AR42J tumor-bearing mice [5]; 1.0 nmol/mouse,0.27 ± 0.03 % IA/g
same,Biodistribution: Muscle,AR42J tumor-bearing mice [5]; 1.0 nmol/mouse,≤0.10 % IA/g
same,Biodistribution: Pancreas,AR42J tumor-bearing mice [5]; 1.0 nmol/mouse,0.71 ± 0.07 % IA/g
same,Biodistribution: Spleen,AR42J tumor-bearing mice [5]; 1.0 nmol/mouse,0.11 ± 0.02 % IA/g
same,Biodistribution: Stomach,AR42J tumor-bearing mice [5]; 1.0 nmol/mouse,0.74 ± 0.38 % IA/g
same,Median survival,"AR42J tumors; 2 x 10 MBq, 0.2 nmol",21 days
same,tumor growth delay,"AR42J tumors; 2 x 10 MBq, 0.2 nmol, Day 0 and 7",9.0 ± 5.5 days
same,Time frame of euthanasia,"AR42J tumors; 2 x 10 MBq, 0.2 nmol, end of study = 49 days",20 to 26 days
same,tumor doubling time,AR42J tumors; regrowth phase,3.4 ± 3.6 days
CC(O)C1NC(=O)C(CCCCN)NC(=O)C(Cc2ccc(NC(N)=O)cc2)NC(=O)C(Cc2ccc(O)cc2)NC(=O)C(NC(=O)C(Cc2ccc(Cl)cc2)NC(=O)CN2CCN(CC(=O)O)CCN(CC(=O)O)CCN(CC(=O)O)CC2)CSSCC(C(=O)NC(Cc2ccc(O)cc2)C(N)=O)NC1=O (centres unmarked) [metal not drawn] ({DOTA}-[Phe(4-Cl)]CY[X1]KTCY-NH2; disulfide 2-7; configuration not given here),ALB (albumin),[2],22 ± 1 g/L
same,ALP (alkaline phosphatase),[2],65 ± 15 U/L
same,BUN (blood urea nitrogen),[2],9.1 ± 1.5 mmol/L
same,CRE (plasma creatinine),[2],<18 (n=5) 18 (n=1) µmol/L
same,TBIL (total bilirubin),[2],<3 (n=5) 3 (n=1) µmol/L
same,Tumor-to-liver,AR42J tumor-bearing mice [6],63 ± 18
same,Biodistribution: Muscle,AR42J tumor-bearing mice [3]; 2 h p.i.,≤0.10 % IA/g
same,Biodistribution: Spleen,AR42J tumor-bearing mice [3]; 2 h p.i.,0.41 ± 0.08 % IA/g
same,tissue uptake at 2 h,in vivo; femur,0.2 ± 0.05 %ID/g
same,tissue uptake at 2 h,in vivo; kidneys,12 ± 2 %ID/g
same,tissue uptake at 2 h,in vivo; lung,1 ± 0.2 %ID/g
same,tissue uptake at 24 h,in vivo; spleen,0.13 ± 0.03 %ID/g
